# Assay results: patent US20200199241A1 (Chugai, published 2020)
# Where a chain is given by its changes, count along the chain named. Numbers in names are those of the source.
# T1: human FcγRIIa type H (human, UniProt P12318 36-217)
# T1 construct: also called FcγRIIaH; FcγRIIa(H)
# T1 sequence: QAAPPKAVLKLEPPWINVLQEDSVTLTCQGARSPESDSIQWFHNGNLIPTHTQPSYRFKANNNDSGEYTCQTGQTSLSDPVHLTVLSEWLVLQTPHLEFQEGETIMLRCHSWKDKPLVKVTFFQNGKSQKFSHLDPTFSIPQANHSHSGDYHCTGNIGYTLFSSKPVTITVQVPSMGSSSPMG
# T2: human FcγRIIa type R (human, UniProt P12318 36-217)
# T2 construct: also called FcγRIIaR; FcγRIIa(R)
# T2 chain: T1 sequence with H133R
# T3: human FcγRIIb (human, UniProt P31994 43-217, limits assumed)
# T3 construct: also called FcγIIB
# T3 sequence: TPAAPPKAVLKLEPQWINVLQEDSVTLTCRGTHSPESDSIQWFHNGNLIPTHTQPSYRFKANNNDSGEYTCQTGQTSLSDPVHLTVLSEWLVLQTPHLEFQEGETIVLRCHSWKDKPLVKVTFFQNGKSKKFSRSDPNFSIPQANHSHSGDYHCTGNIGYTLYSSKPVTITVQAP
# T4: FcγRIIb (human, UniProt P31994 43-217, limits assumed)
# T4 construct: also called FcgRIIb; FcγIIB
# T4 sequence: T3 sequence
# T5: FcγRIIa type R (human, UniProt P12318 36-217)
# T5 construct: also called FcγRIIaR; FcgRIIaR
# T5 chain: T1 sequence with H133R
# T6: FcγRIIa type H (human, UniProt P12318 36-217)
# T6 construct: also called FcγRIIaH; FcγRIIH
# T6 sequence: T1 sequence
# B1: IL6R-BF648/IL6R-L (antibody, human IgG1)
# heavy: not shown
# light: DIQMTQSPSSLSASVGDRVTITCRASQDISSYLNWYQQKPGKAPKLLIYYTSRLHSGVPSRFSGSGSGTDFTFTISSLQPEDIATYYCQQGNTLPYTFGQGTKVEIK
# notes: IL6R-B3 with P238D; also called P238D
# B2: IL6R-B3/IL6R-L (antibody, human IgG1)
# heavy: not shown
# light: B1 light
# notes: IL6R-G1d with K439E (EU numbering)
# B3: IL6R-BP102/IL6R-L (antibody, human IgG1)
# heavy: QVQLQESGPGLVKPSETLSLTCAVSGHSISHDHAWSWVRQPPGEGLEWIGFISYSGITNYNPSLQGRVTISRDNSKNTLYLQMNSLRAEDTAVYYCARSLARTTAMDYWGEGTLVTVSSASTKGPSVFPLAPSSKSTSGGTAALGCLVKDYFPEPVTVSWNSGALTSGVHTFPAVLQSSGLYSLSSVVTVPSSSLGTQTYICNVNHKPSNTKVDKKVEPKSCDKTHTCPPCPAPELLGGDSVFLFPPKPKDTLMISRTPEVTCVVVDVQHEDPEVKFNWYVDGVEVHNAKTKPREEQYNSTYRVVSVLTVLHQDWLNGKEYKCKVSNKALPAPIEKTISKAKGQPREPQVYTLPPSRDELTKNQVSLTCLVKGFYPSDIAVEWESNGQPENNYKTTPPVLDSDGSFFLYSKLTVDKSRWQQGNVFSCSVMHEALHNHYTQESLSLSP
# light: B1 light
# notes: Alteration introduced into IL6R-B3; also called P238D/S267Q
# B4: IL6R-2B171/IL6R-L (antibody, human IgG1)
# heavy: B3 heavy with Q269S, V325L
# light: B1 light
# notes: Alteration introduced into IL6R-B3; also called P238D/V323L
# B5: IL6R-BP103/IL6R-L (antibody, human IgG1)
# heavy: B3 heavy with Q269V
# light: B1 light
# notes: Alteration introduced into IL6R-B3; also called P238D/S267V
# B6: IL6R-2B172/IL6R-L (antibody, human IgG1)
# heavy: B3 heavy with Q269S, V325M
# light: B1 light
# notes: Alteration introduced into IL6R-B3; also called P238D/V323M
# B7: IL6R-BP118/IL6R-L (antibody, human IgG1)
# heavy: B3 heavy with Q269S, K328S
# light: B1 light
# notes: Alteration introduced into IL6R-B3; also called P238D/K326S
# B8: IL6R-BP116/IL6R-L (antibody, human IgG1)
# heavy: B3 heavy with Q269S, K328T
# light: B1 light
# notes: Alteration introduced into IL6R-B3; also called P238D/K326T
# B9: IL6R-2B128/IL6R-L (antibody, human IgG1)
# heavy: B3 heavy with Q269S, Y298D
# light: B1 light
# notes: Alteration introduced into IL6R-B3; also called P238D/Y296D
# B10: IL6R-BP121/IL6R-L (antibody, human IgG1)
# heavy: B3 heavy with Q269S, K328Q
# light: B1 light
# notes: Alteration introduced into IL6R-B3; also called P238D/K326Q
# B11: IL6R-BP110/IL6R-L (antibody, human IgG1)
# heavy: B3 heavy with Q269S, H270N
# light: B1 light
# notes: Alteration introduced into IL6R-B3; also called P238D/H268N
# B12: IL6R-BP119/IL6R-L (antibody, human IgG1)
# heavy: B3 heavy with Q269S, K328M
# light: B1 light
# notes: Alteration introduced into IL6R-B3; also called P238D/K326M
# B13: IL6R-2B169/IL6R-L (antibody, human IgG1)
# heavy: B3 heavy with Q269S, V325I
# light: B1 light
# notes: Alteration introduced into IL6R-B3; also called P238D/V323I; 1L6R-2B169/IL6R-L
# B14: IL6R-BP912/IL6R-L (antibody, human IgG1)
# heavy: B3 heavy with Q269S, A332R
# light: B1 light
# notes: Alteration introduced into IL6R-B3; also called P238D/A330R
# B15: IL6R-BP100/IL6R-L (antibody, human IgG1)
# heavy: B3 heavy with Q269A
# light: B1 light
# notes: Alteration introduced into IL6R-B3; also called P238D/S267A
# B16: IL6R-BP107/IL6R-L (antibody, human IgG1)
# heavy: B3 heavy with Q269S, H270E
# light: B1 light
# notes: Alteration introduced into IL6R-B3; also called P238D/H268E
# B17: IL6R-BP112/IL6R-L (antibody, human IgG1)
# heavy: B3 heavy with Q269S, P273G
# light: B1 light
# notes: IgG1; Fc variant of IL6R-B3; copies: 2 + 2
# B18: IL6R-BP106/IL6R-L (antibody, human IgG1)
# heavy: B3 heavy with Q269S, H270D
# light: B1 light
# notes: as for B17
# B19: IL6R-BP117/IL6R-L (antibody, human IgG1)
# heavy: B3 heavy with Q269S, K328D
# light: B1 light
# notes: as for B17
# B20: IL6R-BP107/IL6R-L (antibody, human IgG1)
# heavy: B3 heavy with Q269S, H270E
# light: B1 light
# notes: as for B17
# B21: IL6R-BP078/IL6R-L (antibody, human IgG1)
# heavy: B3 heavy with Q269S, A332M
# light: B1 light
# notes: as for B17
# Biological target: T1, human FcγRIIa type H
# Test: SPR (Biacore), binding amount relative to IL6R-BF648/IL6R-L = 100
row,Binder,relative binding
1,B1,100
2,B2,1600
3,B3,66
4,B4,115
5,B5,69
6,B6,179
7,B7,128
8,B8,110
9,B9,37
10,B10,135
11,B11,127
12,B12,133
13,B13,83
14,B14,93
15,B15,128

# Biological target: T2, human FcγRIIa type R
# Test: as above
row,Binder,relative binding
1,B1,100
2,B2,625
3,B3,165
4,B4,117
5,B5,163
6,B6,244
7,B7,132
8,B8,126
9,B16,147
10,B9,87
11,B10,155
12,B11,128
13,B12,181
14,B14,81
15,B15,197

# Biological target: T7, human FcγRIIIa type V (human, UniProt P08637 17-208, limits assumed)
# T7 construct: also called FcγRIIIaV; FcγRIIIa(V)
# T7 sequence (P08637 other isoform, or with tags, fused parts or gaps limits assumed): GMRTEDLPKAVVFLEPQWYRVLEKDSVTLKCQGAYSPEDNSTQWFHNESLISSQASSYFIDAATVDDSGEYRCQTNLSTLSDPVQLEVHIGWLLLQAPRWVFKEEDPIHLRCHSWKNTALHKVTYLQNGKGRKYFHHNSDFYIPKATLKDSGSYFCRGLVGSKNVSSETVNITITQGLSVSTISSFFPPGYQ
# Test: as above
row,Binder,relative binding
1,B1,100
2,B2,3260
3,B3,86
4,B4,122
5,B5,77
6,B6,144
7,B7,144
8,B8,114
9,B16,129
10,B9,96
11,B10,157
12,B11,127
13,B12,145
14,B13,94
15,B14,97
16,B15,138

# Biological target: T3, human FcγRIIb
# Test: as above
row,Binder,relative binding
1,B1,100
2,B2,58
3,B3,106
4,B4,113
5,B5,107
6,B6,132
7,B7,104
8,B8,108
9,B16,118
10,B9,103
11,B10,113
12,B11,101
13,B12,110
14,B13,104
15,B14,103
16,B15,110

# Biological target: T8, human FcγRIa (human, UniProt P12314 16-292, limits assumed)
# T8 construct: also called CD64
# T8 sequence (P12314 16-292 limits assumed): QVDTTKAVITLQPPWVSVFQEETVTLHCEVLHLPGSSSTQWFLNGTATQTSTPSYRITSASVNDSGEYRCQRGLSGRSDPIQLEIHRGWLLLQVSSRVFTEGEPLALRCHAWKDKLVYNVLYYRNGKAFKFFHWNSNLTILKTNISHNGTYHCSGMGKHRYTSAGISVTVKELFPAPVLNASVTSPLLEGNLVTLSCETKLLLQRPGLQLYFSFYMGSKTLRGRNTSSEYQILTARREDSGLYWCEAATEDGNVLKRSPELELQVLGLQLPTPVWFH
# Test: as above
row,Binder,relative binding
1,B1,100
2,B2,145
3,B3,104
4,B4,116
5,B5,56
6,B6,140
7,B7,101
8,B8,110
9,B16,123
10,B9,95
11,B10,118
12,B11,105
13,B12,117
14,B13,73
15,B14,60
16,B15,121

# Biological target: T9, FcγRIIIa type V (human, UniProt P08637 17-208, limits assumed)
# T9 construct: also called FcγRIIIaV; FcgRIIIaV
# T9 sequence (P08637 other isoform, or with tags, fused parts or gaps limits assumed): as the sequence (P08637 other isoform, or with tags, fused parts or gaps limits assumed) above
# Test: SPR (Biacore), FcγR over captured antibody
row,Binder,Kd
1,B17,69 µM
2,B18,55 µM
3,B19,67 µM
4,B20,63 µM
5,B21,78 µM

# Biological target: T4, FcγRIIb
# Test: SPR (Biacore), FcγR over captured antibody
row,Binder,Kd
1,B17,0.32 µM
2,B18,0.93 µM
3,B19,0.8 µM
4,B20,0.93 µM
5,B21,1.1 µM

# Biological target: T5, FcγRIIa type R
# Test: SPR (Biacore), FcγR over captured antibody
row,Binder,Kd
1,B17,3.5 µM
2,B18,11 µM
3,B19,9.2 µM
4,B20,12 µM
5,B21,15 µM

# Biological target: T10, FcγRIa (human, UniProt P12314 16-292, limits assumed)
# T10 construct: also called FcgRIa; CD64
# T10 sequence (P12314 16-292 limits assumed): as the sequence (P12314 16-292 limits assumed) above
# Test: SPR (Biacore), FcγR over captured antibody
row,Binder,Kd
1,B17,0.0065 µM
2,B18,0.004 µM
3,B19,0.0041 µM
4,B20,0.0015 µM
5,B21,0.0082 µM

# Biological target: T6, FcγRIIa type H
# Test: SPR (Biacore), FcγR over captured antibody
row,Binder,Kd
1,B17,35 µM
2,B18,36 µM
3,B19,41 µM
4,B20,52 µM
5,B21,45 µM
